Data reported in publication PMC2119638.

Key:
[1] = target: 190-kD proteolytic fragment of talin (chicken) (UniProt P54939); assay: radioligand binding
[2] = target: talin purified from chicken gizzard (chicken) (UniProt P54939); assay: radioligand binding

Kd, higher affinity of two [1]: 16 nM
Kd, lower affinity of two [1]: 220 nM
Kd, high affinity interaction [2]: 30 nM
Kd, higher affinity of two [2]: 10 nM
Kd, lower affinity interaction [2]: 550 nM
Kd, lower affinity of two [2]: 240 nM
N (Bmax), high affinity interaction (mol of vinculin bound per mol of talin) [2]: 0.15
N (Bmax), lower affinity interaction (mol of vinculin bound per mol of talin) [2]: 3
Substance: vinculin purified from chicken gizzard (natural protein)
